Our source for the Km, kcat and kcat/Km values is publication PMC6437863, “Identification and functional characterization of three new terpene synthase genes involved in chemical defense and abiotic stresses in Santalum album” (BMC Plant Biology, 2019).

Common to all, as to assay: malachite green phosphate release after HCl stop, Michaelis-Menten fit
What all share (format): biochemical, Santalum album
Common to all, as to details: 10 mM Mg2+, 25 mM HEPES, 30°C, 10 min

Substrate in data set [1]: CC(C)=CCC/C(C)=C/COP(=O)(O)OP(=O)(O)O
An excerpt:
(§1) malachite green phosphate release after HCl stop, Michaelis-Menten fit on SaTPS3

Substrate in data set [2]: CC(C)=CCC/C(C)=C/CC/C(C)=C/CO[P@@](=O)(O)OP(=O)(O)O
Text: as §1

Substrate in data set [3]: CC(C)=CCC/C(C)=C/COP(=O)(O)OP(=O)(O)O
An excerpt: (§2) malachite green phosphate release after HCl stop, Michaelis-Menten fit on SaTPS2
This is another data set of the same source.

Substrate in data set [4]: CC(C)=CCC/C(C)=C/CC/C(C)=C/CO[P@@](=O)(O)OP(=O)(O)O
Text: as §2
This is another data set of the same source.

B1: SaTPS3 (Santalum album) (protein)
chain: MESFVFLKSATSNANNSVKVDNRRSANYQSSVWDYNFLRLLGTTYTCCDTMEEEHVRIAEKLKEEVKSLIMGSMGPLANLEFIDAVQRLGLKYQFETEIKEALFAIYKDSNEEWWANDLHATALRFRLLRRNLLFVSQDVFERFKDKKTHDFSGELCEDVKGILSLYEACFLGWDGERVLDKARIFTTTHLNAMNRSTVSDGGSLDKKVKHALELPLHWRAPRVEARWFIDVYEQDPNMNLALLKLAKLDFNMVQSIHQKEVGELSRWWVRTGLDKLSFARNGLMQNYMYCCAVTFEPQFAHVREALTKIGSVLTATDDLYDVYGSLEELELFTSFIDRWDIKEIDELPRDIRLIFLAMYNLSNEIGFDILRDRDFNGVPYVAKMLGDVCSAYLKEARWYHGGYKPRMEEYLDNGLVSIGMLPLLAVAYMLTTDNLSKETVDHVAAAAPLVRYCSLLLRMIDDLGTSSDELRRGDTLKSVECYMNQAGASEEIAREHIEELVRNTWKKMNQCCFGDGQSSFADPFLSFTLNSVRGAHFFYQFGDGFGVTESWTKDTVLSVLFQPIPLDED
notes: full-length ORF, 6His-tagged, pET-28a, E. coli Rosetta 2 (DE3), Ni-NTA purified; no plastid transit peptide; SaTPS1 to 3 span 564 to 604 residues
In general, Km refers to the concentration of substrate that gives half-maximal velocity. For orientation: kcat means the maximal rate divided by the concentration of active sites. Usually kcat/Km stands for the turnover number divided by the Michaelis constant. As for B1, in data set [1], the Km was 14.38 ± 1.20 µM, the kcat is 0.257 ± 0.008 s⁻¹ and the kcat/Km worked out at 17900 M⁻¹ s⁻¹. In data set [2], the Michaelis-Menten constant (Km) is 16.29 ± 1.48 µM, the kcat turned out to be 0.171 ± 0.006 s⁻¹ and the specificity constant (kcat/Km) was found to be 10500 M⁻¹ s⁻¹.

B2: SaTPS2 (Santalum album) (protein)
chain: MDSATLKVLCDNDANVKIEKNPSGNRRSANYEPSIWNYDFLQSLDSCYNIVEEKHLKLAEKLKGEVKSIIKAPMEPLAKLELVDVVQRLGLKHLFETEIKEALFTVYKDGSDAWWLGHLYATSLRFRLLRQAGLFIPQDVFEIFKSATGEFDMKLRDNIEGLLSLYEASFLGWKGENILDEAKAFTTEYLKNAWENIPQKWLAIRVKHALDLPLHWRVPRFEARWFIDAYEREENINPTLLKLAKLDFNMVQSIHQRELGKLARWWVSTGLDKLSFARNNLMQSYMYGTAVTSDPQFKLARETIVKTGSLITIVDDVYDVFGSIDELELYTNFVDRWNCTEVDELPNTIKMIFLAMFNTANEIGFQIQTERGFNGIPALSKAWDDLCKSYIKEAKWYHGKHKPTLQEYLGNAVVSVGFPLLMTTGYVAIADSEGALDKIDRIPDLVRYACLLNRLVNDLATSSDELARGDTLKSIECYMNQTGASEEIAREHIKGLIEDTWKTLNECSFDDSQFGEPFVSFNLNSVRGSHFFYQHGDGYGVTNSWTKDDLMSILINPISVDDES
notes: as for B1
In the case of B2, in data set [3], the Km turned out to be 12.27 ± 1.32 µM, the kcat turned out to be 0.189 ± 0.007 s⁻¹ and the kcat/Km came to 15400 M⁻¹ s⁻¹. In data set [4], the Km was 12.15 ± 1.32 µM, the kcat turned out to be 0.2 ± 0.008 s⁻¹ and the kcat/Km was 16400 M⁻¹ s⁻¹.
